PMC3800195 (Molecular microbiology, 2010)

Molecular target: the molecule itself
Assay: crystal structure

B1: IsdI (enzyme, Staphylococcus aureus)
chain: MFMAENRLQLQKGSAEETIERFYNRQGIETIEGFQQMFVTKTLNTEDTDEVKILTIWESEDSFNNWLNSDVFKEAHKNVRLKSDDDGQQSPILSNKVFKYDIGYHYQK
B1: binds.
